Results from PMC12458545, “Repurposing a Detrimental Antibody Epitope as Targeted Therapeutics for Sepsis and Rheumatoid Arthritis” (Research Square, 2025).
Entries after “also recorded” stand apart in the source; their conditions may differ.

How the values were obtained:
[1] = water solubility; type: physicochemical
[2] = test system: CLP-induced sepsis; test: CLP sepsis survival; type: in vivo, Balb/C mice
Protocol: Experimental sepsis was induced in Balb/C mice via cecal ligation and puncture (CLP) as previously described,[30],[37]. […] Briefly, mice were anesthetized intramuscularly with ketamine (75 mg/kg, Henry Schein Animal Health, Dublin, Ohio) and xylazine (10 mg/kg, Sigma-Aldrich) before a midline abdominal incision was made in the lower left abdomen. The cecum was ligated with a 4–0 silk suture at 50% of its length from the distal end, and punctured twice with a 21-gauge needle to induce moderate to severe sepsis. The cecum was returned to the abdominal cavity, and the incision was closed in layers. Approximately 30 min post-CLP, animals received imipenem/cilastatin (0.5 mg/mouse, Primaxin, Merck & Co., Inc.) and 1.0 mL of sterile saline for fluid resuscitation. Animals were randomized to control vehicle and experimental groups, administered P2 or P2–1 intraperitoneally at indicated doses and time points, and monitored for survival rates. To elucidate P2–1’s protective mechanisms, a separate group of Balb/C mice underwent CLP and received P2–1 (1.0 mg/kg) at 2 h and 20 h post-CLP. At 24 h post-CLP, animals were euthanized to collect blood and measure serum cytokines and chemokines using murine Cytokine Antibody Arrays.
All data were first assessed for normality using the Shapiro-Wilk test before applying the appropriate statistical analyses. All data are presented as mean ± standard error of the mean (SEM) unless otherwise specified. For comparison among multiple groups with non-normal (skewed) distribution, the Kruskal-Wallis ANOVA test followed by Dunn’s post-hoc test was used to evaluate statistical differences. Survival curves were analyzed using Kaplan-Meier method and compared using the nonparametric log-rank (Mantel-Cox) test. Statistical significance was defined as a P value less than 0.05.

[3] = test system: human PBMCs; conditions: TN; cited from earlier work
Description: To validate these RNA-seq findings, we quantified HMGB1-induced cytokine/chemokine protein levels using Cytokine Antibody Arrays.

[4] = test system: human PBMCs; test: HMGB1-induced pCTS-L secretion, Western blot; type: cell-based; conditions: HMGB1 alone
Protocol: (§1) Human blood was purchased from the New York Blood Center (Long Island City, NY, USA), and PBMCs were isolated by density gradient centrifugation through Ficoll (Ficoll-Paque PLUS) as previously described,[30]. PBMCs were cultured in RPMI-1640 supplemented with 10% human serum, 2 mM L-glutamine, 100 U/mL penicillin, and 100 μg/mL streptomycin (all from Invitrogen). For experiments, PBMCs were stimulated with recombinant human HMGB1 (0.5 or 2.0 μg/ml) for 16 hours, either alone or in combination with P2–1 at 5.0 or 10.0 μg/ml. Cell-free supernatants were collected for analysis of cytokines/chemokines levels by Cytokine Antibody Arrays, or pCTS-L levels by Western blotting analysis as described.
Cell-conditioned medium from human PBMC cultures was collected, and concentrated using Amicon Ultra Centrifugal Filters. Equal volumes of conditioned medium, representing equivalent numbers of cells, were resolved on sodium dodecyl sulfate (SDS)-polyacrylamide gels and transferred to polyvinylidene difluoride (PVDF) membranes. After blocking with 5% nonfat milk in Tris-buffered saline with 0.1% Tween 20 (TBST), membranes were probed with a home-made primary monoclonal antibody against pCTS-L (e.g., mAb2, 1:1000) overnight as previously described. After washing, membranes were incubated with a horseradish peroxidase-conjugated secondary antibody. Protein bands were visualized using enhanced chemiluminescence (ECL) substrate (Pierce) and detected with a chemiluminescence imaging system (e.g., Bio-Rad ChemiDoc MP). The relative levels of specific proteins were determined using the UN-SCAN-IT Gel Analysis Software Version 7.1 (Silk Scientific Inc., Orem, UT, USA) and expressed in arbitrary units (AU).

[5] = test system: human PBMCs; test: HMGB1-induced cytokine/chemokine secretion, Cytokine Antibody Arrays; type: cell-based; conditions: HMGB1 0.5 or 2.0 μg/ml alone, 16 h
Protocol: as §1
Levels of cytokines and chemokines in mouse serum and joint tissue lysates, or human PBMC culture supernatants were determined using murine or human Cytokine Antibody Arrays (e.g., Cat. No. M0308003 or Cat. No. AAH-CYT-3–4, RayBiotech Inc., Norcross, GA, USA) as previously described,[30],[86],[87]. Serum samples were collected from mice at 24 h post-CLP. The soft tissue of the hindpaw and ankle joints was carefully collected using a previously described protocol. Briefly, 0.5 g of fresh soft tissue was cut into 3 mm pieces, and mixed with 400 μL of a hypertonic solution (500 mL PBS with 4.5 g NaCl and 2× protease inhibitor cocktail) in a 10 mL syringe. Mechanical extrusion, involving 30 rapid back-and-forth movements of the plunger, was then performed. The expelled extracellular fluid was collected, immediately aliquoted, and stored at −20°C until analysis. Cell-conditioned medium was collected from PBMC cultures after 16 h of stimulation. Arrays were performed according to the manufacturer’s protocol, followed by chemiluminescent detection and densitometric quantification as previously described,[30].

[6] = test system: human PBMCs; test: RNA-seq of HMGB1-stimulated PBMCs; type: cell-based; conditions: HMGB1 stimulation alone
Protocol: as §1
Total RNA was isolated from human PBMCs stimulated with HMGB1 in the absence or presence of P2–1 (5.0 or 10.0 μg/ml) using the RNeasy Mini Kit (Qiagen) according to the manufacturer’s instructions. RNA quantity and quality were assessed using a NanoDrop spectrophotometer and an Agilent Bioanalyzer. cDNA libraries were prepared using the TruSeq RNA Library Prep Kit v2 (Illumina) and sequenced on an Illumina NovaSeq 6000 platform to generate 100 bp paired-end reads. Raw sequencing reads were quality-checked using FastQC, trimmed with Trimmomatic, and aligned to the human reference genome (GRCh38) using HISAT2. Gene counts were quantified using StringTie and DESeq2 was used for differential gene expression analysis. Volcano plots and heatmaps were generated using ggplot2 and pheatmap packages in R, respectively. Genes with an adjusted P-value < 0.05 and a |log2-fold change| > 1 were considered differentially expressed.

[7] = test system: TN peptides (P1-P10); test: dot blot epitope mapping of anti-TN mAbs with TN peptides P1-P10; type: binding, human; conditions: peptides 0.1 μg in 2.5 μl on nitrocellulose; mAb 1.0 μg/mL; chemiluminescence
Protocol: A library of ten synthetic peptides (P1-P10, fig. S1B) corresponding to C-terminus portion of TN protein (fig. S1A) were spotted (0.1 μg in 2.5 μl) onto nitrocellulose membranes (Thermo Scientific, Cat No. 88013). Membranes were blocked with 5% milk in PBS-T (PBS with 0.1% Tween-20) and then incubated with anti-TN monoclonal antibodies (mAb8 or mAb9, 1.0 μg/mL). After washing, membranes were incubated with HRP-conjugated goat anti-mouse IgG (Jackson ImmunoResearch), and signals were detected using chemiluminescence as described,[30].

[8] = test system: CLP-induced sepsis; conditions: anti-TN mAbs; mice; cited from earlier work
[9] = target: T1, P5 peptide of tetranectin (Homo sapiens, UniProt P05452); test: far-Western, overlay or dot blot; synthetic TN peptides P1-P10 spotted (0.1 μg in 2.5 μl) on nitrocellulose, blocked with 5% milk in PBS-T; mAb8 or mAb9 at 1.0 μg/mL; HRP goat anti-mouse IgG, chemiluminescence; conditions: both partners purified
T1 construct: synthetic peptide from the C-terminal portion (CRD) of human tetranectin; S1A, S1B; source: synthetic peptide
T1 chain: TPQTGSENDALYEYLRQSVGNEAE

With 55-KVHMKCFLAFTQTKTF-70 [P2] the water solubility [1] was “poor water solubility”, the “survival” value ([2]; P2 5.0 mg/kg at 2 h and 24 h post-CLP, 5 mg/kg) was “significantly increased survival rates in both male and female mice; also recorded: significantly increased animal survival” and the “animal survival (# of Survivors)” value ([2]; P2 5.0 mg/kg i.p. at 2 h and 24 h post-CLP, male and female mice, P < 0.05 vs. vehicle) was 60%.

B1: TN: full-length human tetranectin (residues 1-181) (protein, UniProt P05452 22-202, looked up)
Tetranectin: EPPTQKPKKIVNAKKDVVNTKMFEELKSRLDTLAQEVALLKEQQALQTVCLKGTKVHMKCFLAFTQTKTFHEASEDCISRGGTLGTPQTGSENDALYEYLRQSVGNEAEIWLGLNDMAAEGTWVDMTGARIAYKNWETEITAQPDGGKTENCAVLSGAANGKWFDKRCRDQLPYICQFGIV
For B1, the “HMGB1-induced cytokines (e.g., IL-6) and chemokines (e.g., MCP-1)” value [3] is given as “did not affect HMGB1-induced cytokines (e.g., IL-6) and chemokines (e.g., MCP-1)”.

B2: HMGB1: recombinant human HMGB1 expressed in E. coli; PBMC stimulus and SPR target (protein)
chain: MGKGDPKKPRGKMSSYAFFVQTCREEHKKKHPDASVNFSEFSKKCSERWKTMSAKEKGKFEDMAKADKARYEREMKTYIPPKGETKKKFKDPNAPKRPPSAFFLFCSEYRPKIKGEHPGLSIGDVAKKLGEMWNNTAADDKQPYEKKAAKLKEKYEKDIAAYRAKGKPDAAKKGVVKAEKSKKKKEEEEDEEDEEDEEEEEDEEDEDEEEDDDDE
With B2 the “pCTS-L expression and secretion” value [4] was “induced pCTS-L expression and secretion in human immune cells”, the “cytokine and chemokine protein levels (e.g., TNF, IL-6, IL-10, CXCL5, CXCL1, CXCL8, CCL2, CCL7)” value [5] was “significantly increased protein levels of various cytokines” and the “gene expression of inflammatory cytokines and chemokines” value [6] was “profoundly upregulated many inflammatory cytokines”.

B3: anti-tetranectin monoclonal antibody mAb8 (antibody, V domains shown)
VH: DVNLVESGGGLVKLGGSLKLSCADSGFTFSSYYMSWVRQTPEKRLELVAAINSNGGRTYYPDTVKGRFTISRDNAKNTLYLQMSSLKSEDTALYYCARQGKNGLDYWGQGTSVTVSS
VL: DIQMTQTTSSLSASLGDRVTISCRASQDISNHLNWYQQKPDGTIKLLIYYTSRLHSGVPSRFSGSGSGTDFSLSISNLEQEDIATYFCQQGKTLPPTFGGGTKLEIK
notes: mouse monoclonal antibody; also called protective anti-TN mAb; source: generated in Balb/C and C57BL/6 mice as previously described [6,30]; hybridoma
For B3, the “TN peptide bound in dot blot” value [7] is listed as “targeted P5; also recorded: binds P5”, the “effect on septic survival/lethality” value [8] is listed as “protected mice against sepsis” and the binding result [9] is listed as “binds”.
